This note sets out measurements from the RNAGym collection of RNA variant scans (doi:10.7554/elife.90254).

Sequences and labels used below:
B1: LINE1-full (parent)
chain: UACGUAGGUGGUUUUCCCCUGAUAGUGCUAAGGGGGCCUGGAAGUUUGGACUGGGCAGAGCUCAACACAGCGUGGCAAAGUGGCUGUGGCUAGACUGCCUCUCUGGAUUCCUCGUCACUCAGCAGGGCAUCUCUGAGAGAAAUGCC

The series covers variants of B1. Nature of the series: self-cleavage, relative activity (ratio to wild type); higher = more cleavage; in vitro, sequencing; the parent is a self-cleaving ribozyme.
Regarding CACGUAGGUGGUUUUCCCCUGAUAGUGCUAAGGAGGCCUGGAAGUUUGGACUGGGCAGAGCUCAACACAGCGUGGCAAAGUGGCUGUGGCUAGACUGCCUCUCUGGAUUCCUCGUCACUCAGCAGGGCAUCUCUGAGAGAAAUGCC [U1C G34A], the self-cleavage is 0.75.

On to CACGUAAGUGGUUUUCCCCUGAUAGUGCUAAGGGGGCCUGGAAGUUUGGACUGGGCAGAGCUCAACACAGCGUGGCAAAGUGGCUGUGGCUAGACUGCCUCUCUGGAUUCCUCGUCACUCAGCAGGGCAUCUCUGAGAGAAAUGCC [U1C G7A], for which the self-cleavage came out at 0.7.

As to CACGUAGGUGGUUUUCCCCUGAUAGUGCUAAGGGGGCCUGGAAGUUUGGACUGGGCAGAGCUCAACACAGCGUGGCAAAGUGGCUGUGGCUAGACUGCCUCUUUGGAUUCCUCGUCACUCAGCAGGGCAUCUCUGAGAGAAAUGCC [U1C C103U], the self-cleavage was determined as 0.29. For the variant CACGUAGGUGGUUUUCCCCUGAUAGUGCUAAGGGGCCCUGGAAGUUUGGACUGGGCAGAGCUCAACACAGCGUGGCAAAGUGGCUGUGGCUAGACUGCCUCUCUGGAUUCCUCGUCACUCAGCAGGGCAUCUCUGAGAGAAAUGCC [U1C G36C], the self-cleavage worked out at 1.26.

As to CACGUAGGUGGUUUUCCCCUGAUAGUGCUAAGGGGGCCUGGAAGUUUGGACUGGGCAGAGCUCAACACAACGUGGCAAAGUGGCUGUGGCUAGACUGCCUCUCUGGAUUCCUCGUCACUCAGCAGGGCAUCUCUGAGAGAAAUGCC [U1C G70A], the self-cleavage came to 0.04. Turning to CACGUAGGUGGUUUUCCCCUGAUAGUGCUAAGGGCGCCUGGAAGUUUGGACUGGGCAGAGCUCAACACAGCGUGGCAAAGUGGCUGUGGCUAGACUGCCUCUCUGGAUUCCUCGUCACUCAGCAGGGCAUCUCUGAGAGAAAUGCC [U1C G35C], the self-cleavage was determined as 1.26. CACGUAGGUGGUUUUCCCCUGAUAGUGCUAAGGGAGCCUGGAAGUUUGGACUGGGCAGAGCUCAACACAGCGUGGCAAAGUGGCUGUGGCUAGACUGCCUCUCUGGAUUCCUCGUCACUCAGCAGGGCAUCUCUGAGAGAAAUGCC [U1C G35A]: the self-cleavage was 0.67.

Consider CACGUAGGUGGUUUUCCCCUGAUAGUGCUAAGGGGGCUUGGAAGUUUGGACUGGGCAGAGCUCAACACAGCGUGGCAAAGUGGCUGUGGCUAGACUGCCUCUCUGGAUUCCUCGUCACUCAGCAGGGCAUCUCUGAGAGAAAUGCC [U1C C38U], for which the self-cleavage is 0.71. For CACGUAGGUGGUUUUCCCCUGAUAGUGCUAAGGGGGCAUGGAAGUUUGGACUGGGCAGAGCUCAACACAGCGUGGCAAAGUGGCUGUGGCUAGACUGCCUCUCUGGAUUCCUCGUCACUCAGCAGGGCAUCUCUGAGAGAAAUGCC [U1C C38A] the value was 0.55; for CACGUAGGUGGUUUUCCCCUGAUAGUGCUAAGGGGGCCUGGAAGUUUGGACUGGGUAGAGCUCAACACAGCGUGGCAAAGUGGCUGUGGCUAGACUGCCUCUCUGGAUUCCUCGUCACUCAGCAGGGCAUCUCUGAGAGAAAUGCC [U1C C56U], 0.07.

With CACGUAGGUGGUUUUCCCCUGAUAGUGCUAAGGGGGCCUGGAAGUUUGGACUGGGCAGAGCUCAACACAGCGUGGCAAAGUGGCUAUGGCUAGACUGCCUCUCUGGAUUCCUCGUCACUCAGCAGGGCAUCUCUGAGAGAAAUGCC [U1C G86A], the self-cleavage was 0.06. For the variant CACGUAGGUGGUUUUCCCCUGAUAGUGCUAAGGGGGCCUGGAAGUUUGGACUGGGCAGAGCUCAACACAGCGUGGCAAAGUGGCUGUGGCUAAACUGCCUCUCUGGAUUCCUCGUCACUCAGCAGGGCAUCUCUGAGAGAAAUGCC [U1C G93A], the self-cleavage was determined as 0.09. For the variant CACGUAGGUGGUUUUCCCCUGAUAAUGCUAAGGGGGCCUGGAAGUUUGGACUGGGCAGAGCUCAACACAGCGUGGCAAAGUGGCUGUGGCUAGACUGCCUCUCUGGAUUCCUCGUCACUCAGCAGGGCAUCUCUGAGAGAAAUGCC [U1C G25A], the self-cleavage came out at 0.72. CACGUAGGUAGUUUUCCCCUGAUAGUGCUAAGGGGGCCUGGAAGUUUGGACUGGGCAGAGCUCAACACAGCGUGGCAAAGUGGCUGUGGCUAGACUGCCUCUCUGGAUUCCUCGUCACUCAGCAGGGCAUCUCUGAGAGAAAUGCC [U1C G10A]: the self-cleavage was found to be 0.95.

In the case of CACGUAGGUGGUUUUCCCCUGAUAGUGCUAAGGGGGCCUGGAAGUUUGGACUGGGCAGAGCUCAACACAGCGUGGCAAAGUAGCUGUGGCUAGACUGCCUCUCUGGAUUCCUCGUCACUCAGCAGGGCAUCUCUGAGAGAAAUGCC [U1C G82A], the self-cleavage turned out to be 1.3. In the case of CACGUAGGUGGUUUUCCCCUGAUAGUGCUAAGGGGGCCUGGAAGUUUGGACUGGGCAGAGCUCAACACAGCGUGGCAAAGUGACUGUGGCUAGACUGCCUCUCUGGAUUCCUCGUCACUCAGCAGGGCAUCUCUGAGAGAAAUGCC [U1C G83A], the self-cleavage amounted to 0.74. Then CACGUAGGUGGUUUUCCCCUGAUAGUGCUAAGGGGGCCUGGAAGUUUGGACUGGGCAGAGCUCAACACAGCGUGGCAAAGUGGCUGUGGCUAGACUGCCUCUCUGGAUUCCUAGUCACUCAGCAGGGCAUCUCUGAGAGAAAUGCC [U1C C113A], with 0.62. On to CACUUAGGUGGUUUUCCCCUGAUAGUGCUAAGGGGGCCUGGAAGUUUGGACUGGGCAGAGCUCAACACAGCGUGGCAAAGUGGCUGUGGCUAGACUGCCUCUCUGGAUUCCUCGUCACUCAGCAGGGCAUCUCUGAGAGAAAUGCC [U1C G4U], for which the self-cleavage is 0.78.

For the variant CACGUAGGUGGUUUUCCCCUGAUAGUGCUAAGGGGGCCUGGAAGUUUGGACUGGGCAGAGCUCAACACAGCGUGGCAAAGUGGCUGUGGCUAGACUGCCUCUCUGGAUUCCUCGUCACUCAGCAGGGAAUCUCUGAGAGAAAUGCC [U1C C128A], the self-cleavage worked out at 0.79. Take CACGUAGGUGGUUUUCCCCUGAUAGUGCUAAGGGGGCCUGGAAGUUUGGACUGGGCAGAGCUCAACACAGCGUGGCAAAGUGGCUGUGGCUAGACUGCUUCUCUGGAUUCCUCGUCACUCAGCAGGGCAUCUCUGAGAGAAAUGCC [U1C C99U]: the self-cleavage came out at 0.24.
